The values below come from patent publication US20210395742.

pEC50: −log10 of the molar value.

Experiment in all cases: EMSA
A general note: In EMSA bound probe runs differently from free probe, usually more slowly.

The test system of data set [1] is Mouse IgG1 monoclonal antibody (including anti-streptavidin) (Mus musculus). Particulars: T = 5-ethynyldeoxyuridine clicked with sulfo-HSAB (NHS ester); for pEC50: half-maximal covalent binding (estimate), Kd not determinable; for binding signal (% bound fraction): maximum covalent binding fraction.
In data set [2] the test system is Mouse IgG2a (Mus musculus). Particulars: T = 5-ethynyldeoxyuridine clicked with sulfo-HSAB (NHS ester), covalent binding fraction.
Data set [3] relates to Mouse IgG2b (Mus musculus). The conditions noted are these: T = 5-ethynyldeoxyuridine clicked with sulfo-HSAB (NHS ester), covalent binding fraction.
The mark [4] stands for this setting: core of consensus SEQ:22, flanks not given.
Where [5] appears, read: core of consensus SEQ:23, flanks not given.

For AGCGCGGAACCGTGCCTGGC [Fc clone 1], in data set [1] (core of consensus SEQ:22, flanks not given, Cu(II) dependent), the pEC50 is above 8.00. For the same sequence, the binding signal (% bound fraction) in data set [1] (setting [4]) worked out at 40; in data set [2] (setting [4]), 40; in data set [3] (setting [4]) it was 10.

Turning to TAACGCARTAAGCGAG [Fc clone 2], in data set [1] (setting [5]), the pEC50 is above 8.00. For the same sequence, the binding signal (% bound fraction) worked out at 20 in data set [1] (setting [5]), 20 in data set [2] (setting [5]) and 2 in data set [3] (setting [5]).

By pEC50 is commonly meant −log10 of the EC50, conventionally taken in molar units.
